Measurements: paper PMC3205435 (Journal of molecular recognition : JMR, 2011)
Read-outs that look alike come from different tables or passages of the source.

B1: ERE duplex (dsDNA)
DNA 1: CCCAGGTCACAGTGACCTGCG
DNA 2: CGCAGGTCACTGTGACCTGGG
B2: DB domain of ERα pre-treated with EDTA to strip divalent zinc ions (metal-free DB domain) (domain or fragment, human, UniProt P03372 176-250, looked up)
chain: MESAKETRYCAVCNDYASGYHYGVWSCEGCKAFFKRSIQGHNDYMCPATNQCTIDKNRRKSCQACRLRKCYEVGM
B3: DB domain of ERα reconstituted with divalent ions of cobalt (domain or fragment, human, UniProt P03372 176-250, looked up)
chain: B2 chain
B4: DB domain of ERα reconstituted with divalent ions of mercury (domain or fragment, human, UniProt P03372 176-250, looked up)
chain: B2 chain
B5: DB domain of ERα reconstituted with divalent ions of cadmium (domain or fragment, human, UniProt P03372 176-250, looked up)
chain: B2 chain
B6: DB domain of ERα reconstituted with divalent ions of zinc (domain or fragment, human, UniProt P03372 176-250, looked up)
chain: B2 chain

Columns and labels:
[1] = target: T1, ERα DB domain (DNA-binding domain) (human, UniProt P03372 176-250); test: ITC
[2] = target: T1, ERα DB domain (DNA-binding domain); test: ITC; remark: listed apart in the source
SEC-MALS = target: the molecule itself; test: SEC-MALS

Binder	Kd [1]	Kd [2]	stoichiometry N (SEC-MALS)
B1	81 ± 2 nM	68 ± 8 nM	–
B2	–	–	2
B3	–	–	2
B4	–	–	2
B5	–	–	2
B6	–	–	2
